{
  "source": "patent US20240036027A1",
  "about": "(UNIVERSITY OF MASSACHUSETTS, published 2024)",
  "key": {"[1]": {"target": "T1, Streptavidin (unconjugated, EMD Millipore) (UniProt P22629 37-163)", "T1 sequence (P22629 37-163 limits assumed)": "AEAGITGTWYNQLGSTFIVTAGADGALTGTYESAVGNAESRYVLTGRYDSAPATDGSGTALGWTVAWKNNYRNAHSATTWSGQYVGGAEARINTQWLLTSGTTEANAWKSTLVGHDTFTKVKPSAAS", "experiment": "single-channel current recording, streptavidin alone, concentration dependence"}, "[2]": {"target": "T1, Streptavidin (unconjugated, EMD …)", "experiment": "single-channel current recording, calculated from kOff and kOn"}, "[3]": {"target": "T1, Streptavidin (unconjugated, EMD …)", "experiment": "single-channel current recording, streptavidin alone, N=12, n=2846"}, "[4]": {"target": "T1, Streptavidin (unconjugated, EMD …)", "experiment": "single-channel current recording"}, "[5]": {"target": "T1, Streptavidin (unconjugated, EMD …)", "experiment": "single-channel current recording, KOff of the lower Ires state taking transient returns to basal conductance as dissociation"}, "[6]": {"target": "T1, Streptavidin (unconjugated, EMD …)", "experiment": "single-channel current recording, discrete binding events"}, "[7]": {"target": "T1, Streptavidin (unconjugated, EMD …)", "experiment": "single-channel current recording, kOn=1/(C*tauOn)"}, "[8]": {"target": "T1, Streptavidin (unconjugated, EMD …)", "experiment": "single-channel current recording, kOff=1/tauOff"}, "[9]": {"target": "T1, Streptavidin (unconjugated, EMD …)", "experiment": "single-channel current recording, apparent Kd=kOff/kOn, N=3, n=903"}},
  "data": [
    {"binder": "OmpG^L3-FLAG/L6-SA1.1 (designed binder, Possible glycines beside SA1.1 (primers) not built in; also called multiplex sensor; SA1.1 multiplex sensor) MEERNDWHFNIGAMYEIENVEGYGEDMDGLAEPSVYFNAANGPWRIALAYYQEGPVDYSAGKRGTWFDRPELEVHYQFLENDDFSFGLTGGFRNYGYHYVDEPGDYKDDDDKGGKDTANMQRWKIAPDWDVKLTDDLRFNGWLSMYKFANDLNTTGYADTRVETETGLQYTFNETVALRVNYYLERGFNMDDSRNNGEFSTQEIRAYLPLTLGNHSVTPYTRIGLDRWSNWDWQGLEICQNVCYYGDDIEREGHDFNRVGLFYGYDFQNGLSVSLEYAFEWQDHDEGDSDKFHYAGVGVNYSF", "values": [
      {"measurement": "kon", "setting": "[1]", "result": 73200, "unit": "M⁻¹ s⁻¹"},
      {"measurement": "Kd", "setting": "[2]", "result": 7.54, "unit": "µM"},
      {"measurement": "koff", "setting": "[3]", "result": 0.552, "unit": "s⁻¹"}
    ]},
    {"binder": "OmpG^L3/L6-SA1.1 (designed binder, SA1.1 motif in both loops 3 and 6; also called avidity sensor; avidity nanopore sensor) MEERNDWHFNIGAMYEIENVEGYGEDMDGLAEPSVYFNAANGPWRIALAYYQEGPVDYSAGKRGTWFDRPELEVHYQFLENDDFSFGLTGGFRNYGYHYVDEPGLEICQNVCYYGGKDTANMQRWKIAPDWDVKLTDDLRFNGWLSMYKFANDLNTTGYADTRVETETGLQYTFNETVALRVNYYLERGFNMDDSRNNGEFSTQEIRAYLPLTLGNHSVTPYTRIGLDRWSNWDWQGLEICQNVCYYGDDIEREGHDFNRVGLFYGYDFQNGLSVSLEYAFEWQDHDEGDSDKFHYAGVGVNYSF", "values": [
      {"measurement": "fold change of KOff against OmpG^L6-SA1.1", "setting": "[4]", "result": "~76", "unit": "fold"},
      {"measurement": "fold change of KOn against OmpG^L6-SA1.1", "setting": "[4]", "result": "~4.7", "unit": "fold"},
      {"measurement": "koff", "setting": "[5]", "result": 0.701, "unit": "s⁻¹"},
      {"measurement": "koff", "setting": "[6]", "result": 0.0103, "unit": "s⁻¹"},
      {"measurement": "kon", "setting": "[6]", "result": 326000, "unit": "M⁻¹ s⁻¹"}
    ]},
    {"binder": "OmpG^L6-SA1.1 (designed binder, also called Loop 6 SA1.1) MEERNDWHFNIGAMYEIENVEGYGEDMDGLAEPSVYFNAANGPWRIALAYYQEGPVDYSAGKRGTWFDRPELEVHYQFLENDDFSFGLTGGFRNYGYHYVDEPGKDTANMQRWKIAPDWDVKLTDDLRFNGWLSMYKFANDLNTTGYADTRVETETGLQYTFNETVALRVNYYLERGFNMDDSRNNGEFSTQEIRAYLPLTLGNHSVTPYTRIGLDRWSNWDWQGLEICQNVCYYGDDIEREGHDFNRVGLFYGYDFQNGLSVSLEYAFEWQDHDEGDSDKFHYAGVGVNYSF", "values": [
      {"measurement": "kon", "setting": "[7]", "result": 69100, "unit": "M⁻¹ s⁻¹"},
      {"measurement": "koff", "setting": "[8]", "result": 0.783, "unit": "s⁻¹"},
      {"measurement": "Kd", "setting": "[9]", "result": 8.83, "unit": "µM"}
    ]}
  ]
}
